Measured values as given in US20220106400A1 (Bristol-Myers Squibb, published 2022).
Changes are numbered by the printed parent chain. Names may count otherwise. “And” between values parts separate entries of the source, which are not always exact repeats. Equal values may be shown once. Read-outs that look alike come from different tables or passages of the source.

What was measured:
[1] = target: T1, human CD73 on human tumor cell lines (human, UniProt P21589 27-549); assay: cell-based or functional assay
T1 sequence (looked up): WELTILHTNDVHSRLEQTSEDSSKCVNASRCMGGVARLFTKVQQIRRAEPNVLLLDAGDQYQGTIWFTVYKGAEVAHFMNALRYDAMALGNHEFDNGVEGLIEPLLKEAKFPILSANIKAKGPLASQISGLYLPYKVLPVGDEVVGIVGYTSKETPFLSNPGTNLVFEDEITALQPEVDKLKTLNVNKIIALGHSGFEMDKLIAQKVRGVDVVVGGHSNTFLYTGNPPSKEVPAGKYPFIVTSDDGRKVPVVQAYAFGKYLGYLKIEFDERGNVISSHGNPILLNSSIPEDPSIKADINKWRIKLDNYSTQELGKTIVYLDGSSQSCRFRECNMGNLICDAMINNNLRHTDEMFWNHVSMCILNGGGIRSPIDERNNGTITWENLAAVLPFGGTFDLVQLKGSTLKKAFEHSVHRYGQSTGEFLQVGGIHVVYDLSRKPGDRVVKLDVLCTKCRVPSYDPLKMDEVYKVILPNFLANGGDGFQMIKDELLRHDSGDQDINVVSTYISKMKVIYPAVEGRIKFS

[2] = target: T2, N-terminal domain of hCD73 (residues 26-336 of human CD73), his-tagged (human, UniProt P21589 26-336); assay: SPR Biacore T100, mAb captured on protein A, N-hCD73-his analyte, 25 C
T2 construct: also called N-hCD73; N-hCD73-his
T2 sequence (looked up): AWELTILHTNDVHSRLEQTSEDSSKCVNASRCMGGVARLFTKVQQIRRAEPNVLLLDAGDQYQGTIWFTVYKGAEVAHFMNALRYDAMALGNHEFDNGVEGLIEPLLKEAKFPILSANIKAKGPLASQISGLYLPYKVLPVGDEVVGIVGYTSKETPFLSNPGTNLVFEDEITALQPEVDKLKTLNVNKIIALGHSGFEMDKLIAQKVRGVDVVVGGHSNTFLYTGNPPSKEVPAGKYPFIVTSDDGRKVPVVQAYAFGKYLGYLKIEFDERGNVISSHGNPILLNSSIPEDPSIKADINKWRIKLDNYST
Experimental: (§1) The affinity of the antibodies for human CD73 was measured to determine whether the change of the constant region affects them. The affinities were determined by Surface Plasmon Resonance (SPR) as follows. […] For these experiments, protein A (Pierce) was immobilized to a density of 3000-4000 RU on flow cells 1-4 of a CM5 sensor chip (GE Healthcare) using standard ethyl(dimethylaminopropyl) carbodiimide (EDC)/N-hydroxysuccinimide (NHS) chemistry, with ethanolamine blocking, in a running buffer of 0.01 M HEPES pH 7.4, 0.15 M NaCl, 3 mM EDTA, 0.005% v/v tween 20. Kinetic experiments were performed by first capturing antibodies (5-10 ug/ml) on the protein A surfaces using a 30 s contact time at 10 ul/min, with binding of 600, 200, 66.7, 22.2, 7.4, and 2.5 nM N-hCD73-his, using a 180 s association time and 360 s dissociation time at a flow rate of 30 ul/min. The running buffer for the kinetic experiments was 10 mM sodium phosphate, 130 mM sodium chloride, 0.05% tween 20, pH 7.1. The surfaces were regenerated after each cycle using two 30 s pulses of 10 mM glycine pH 1.5 at a flow rate of 30 μl/min. Sensogram data was double-referenced and then fitted to a 1:1 Langmuir model using Biacore T100 evaluation software v2.0.4, to determine the association rate constant (ka), the dissociation rate constant (kd), and the equilibrium dissociation constant (KD).

[3] = target: T2, N-terminal domain of hCD73 (residues …); assay: SPR Biacore T100, mAb captured on protein A, N-hCD73-his analyte, 25 C; separate experiment
Experimental: as §1

[4] = target: T1, human CD73 on human tumor cell lines; assay: cell-based or functional assay; remark: listed apart in the source
[5] = target: T1, human CD73 on human tumor cell lines; assay: cell-based or functional assay; remark: listed apart in the source
[6] = target: T1, human CD73 on human tumor cell lines; assay: cell-based or functional assay; remark: listed apart in the source
[7] = target: T3, full length extracellular domain of human-CD73 with C-terminal polyhistidine tag (residues 26-546) (human, UniProt P21589 26-546); assay: SEC, 1:1 molar mix 5.5 uM each
T3 construct: range 26-546; also called hCD73-his; CD73-his
T3 sequence (looked up): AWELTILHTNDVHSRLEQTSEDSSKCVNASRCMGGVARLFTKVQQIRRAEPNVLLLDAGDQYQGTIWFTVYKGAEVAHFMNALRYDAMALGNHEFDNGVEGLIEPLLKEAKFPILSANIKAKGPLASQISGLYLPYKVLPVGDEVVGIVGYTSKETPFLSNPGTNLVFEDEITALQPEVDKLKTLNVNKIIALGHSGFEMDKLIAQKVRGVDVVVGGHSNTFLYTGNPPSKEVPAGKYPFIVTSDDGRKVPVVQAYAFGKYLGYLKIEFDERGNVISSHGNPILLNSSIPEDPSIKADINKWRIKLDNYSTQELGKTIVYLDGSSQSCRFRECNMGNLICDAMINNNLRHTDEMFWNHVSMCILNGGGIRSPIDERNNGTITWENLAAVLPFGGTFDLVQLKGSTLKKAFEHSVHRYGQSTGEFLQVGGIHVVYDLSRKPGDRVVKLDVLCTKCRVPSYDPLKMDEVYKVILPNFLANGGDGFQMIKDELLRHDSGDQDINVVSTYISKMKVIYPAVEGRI
Experimental: The oligomeric state of CD73/antibody complexes were examined by size-exclusion chromatography coupled to an in-line multi-angle light scattering detector (SEC-MALS). Isocratic separations were performed on a Shodex PROTEIN KW-803 column connected to an Prominence Shimadzu UFLC in buffer containing 200 mM K₂HPO₄, 150 mM NaCl, pH 6.8, containing 0.02% Na azide (0.1 μm filtered) running at 0.5 mL/min. Samples were injected onto the column using a SIL-20AC Prominence Shimadzu autosampler, and data were obtained from three online detectors connected in series: a Prominence SPD-20AD diode array UV/vis spectrophotometer followed by a Wyatt miniDAWN™ TREOS Multi-Angle Light Scattering Detector then a Wyatt Optilab T-rEX Refractive Index Detector. Data were collected and analyzed using Astra (Wyatt) and Labsolutions (Shimadzu) software.
CD73.4 antibodies having the heavy chain constant regions set forth in Table 14 were also tested for formation of high molecular weight complexes by SEC-MALS and DLS experiments, as described in Example 3.

[8] = target: T4, human GITR (human, UniProt Q9Y5U5 26-241); assay: cell-based or functional assay
T4 sequence (looked up): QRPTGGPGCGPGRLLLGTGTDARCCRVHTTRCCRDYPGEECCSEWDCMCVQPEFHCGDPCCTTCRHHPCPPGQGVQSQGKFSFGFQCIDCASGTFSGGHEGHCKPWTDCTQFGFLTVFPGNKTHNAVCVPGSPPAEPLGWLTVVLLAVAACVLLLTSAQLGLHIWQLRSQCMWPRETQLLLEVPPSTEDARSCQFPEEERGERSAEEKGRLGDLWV

B1: 11F11 (antibody, human IgG2, kappa, V domains shown)
VH: QVQLVESGGGVVQPGRSLRLSCATSGFTFSNYGMHWVRQAPGKGLEWVAVILYDGSNKYYPDSVKGRFTISRDNSKNTLYLQMNSLRAEDTAVYYCARGGSSWYPDSFDIWGQGTMVTVSS
VL: DIQMTQSPSSLSASVGDRVTITCRASQGISSWLAWYQQKPEKAPKSLIYAASSLQSGVPSRFSGSGSGTDFTLTISSLQPEDFATYYCQQYNSYPLTFGGGTKVEIKR
notes: hybridoma derived anti-CD73 antibody, IgG2 constant region; also called 11F11(IgG2)
[1]
  EC50 of CD73 internalization, Calu6, 2 h: 0.58 nM
  Ymax of CD73 internalization, Calu6, 2 h: 98 % of 100 nM 11F11
[2]
  Kd: 1.6 nM
  koff: 0.00042 s⁻¹
  kon: 260000 M⁻¹ s⁻¹
[3]
  Kd: 0.56 nM
  koff: 0.00016 s⁻¹
  kon: 290000 M⁻¹ s⁻¹

B2: CD73.10-IgG2-C219S (antibody)
heavy: QVQLVESGGGVVQPGRSLRLSCAASGFTFSNYGMHWVRQAPGKGLEWVAVIWYDESNKYYPDSVKGRFTISRDNSKNTLYLQMNSLRAEDTAVYYCARGGSSWYPDSFDIWGQGTMVTVSSASTKGPSVFPLAPCSRSTSESTAALGCLVKDYFPEPVTVSWNSGALTSGVHTFPAVLQSSGLYSLSSVVTVPSSNFGTQTYTCNVDHKPSNTKVDKTVERKSCVECPPCPAPPVAGPSVFLFPPKPKDTLMISRTPEVTCVVVDVSHEDPEVQFNWYVDGVEVHNAKTKPREEQFNSTFRVVSVLTVVHQDWLNGKEYKCKVSNKGLPAPIEKTISKTKGQPREPQVYTLPPSREEMTKNQVSLTCLVKGFYPSDIAVEWESNGQPENNYKTTPPMLDSDGSFFLYSKLTVDKSRWQQGNVFSCSVMHEALHNHYTQKSLSLSPG
light: not shown
notes: anti-CD73; also called CD73.10-IgG2CS; CD73.10-Vh-hHC-IgG2-C219S
[1]
  EC50 of CD73 internalization, Calu6, 2 h: 0.67 nM
  Ymax of CD73 internalization, Calu6, 2 h: 99 % of 100 nM 11F11
[4]
  % internalization, Calu6: 91%
  % internalization, H2030: 85%
  % internalization, H2228: 93%
  % internalization, HCC15: 91%
  T1/2 internalization, Calu6: 3 min
  T1/2 internalization, H2030: 3.3 min
  T1/2 internalization, H2228: 9.7 min
  T1/2 internalization, HCC15: 2.6 min
[2]
  Kd: 6.2 nM
  koff: 0.0014 s⁻¹
  kon: 220000 M⁻¹ s⁻¹
[3]
  Kd: 8.3 nM
  koff: 0.0018 s⁻¹
  kon: 220000 M⁻¹ s⁻¹

B3: CD73.10-IgG2-C219S-IgG1.1 (antibody)
heavy: B2 heavy with Q274K, F296Y, F300Y, V309L, G327A, A330S, P331S, T339A
light: not shown
notes: anti-CD73; also called CD73.10-IgG2CS-IgG1.1f; CD73.10-Vh-hHC-IgG2-C219S-IgG1.1f
[1]
  EC50 of CD73 internalization, Calu6, 2 h: 0.87 nM
  Ymax of CD73 internalization, Calu6, 2 h: 99 % of 100 nM 11F11
[4]
  % internalization, Calu6: 91%
  % internalization, H2030: 87%
  % internalization, H2228: 92%
  % internalization, HCC15: 91%
  T1/2 internalization, Calu6: 3.1 min
  T1/2 internalization, H2030: 4.3 min
  T1/2 internalization, H2228: 9.4 min
  T1/2 internalization, HCC15: 3 min
[2]
  Kd: 5.7 nM
  koff: 0.0014 s⁻¹
  kon: 240000 M⁻¹ s⁻¹
[3]
  Kd: 6.8 nM
  koff: 0.0016 s⁻¹
  kon: 230000 M⁻¹ s⁻¹

B4: CD73.4-IgG2-C219S (antibody)
heavy: B2 heavy with W52L, E55G
light: not shown
notes: anti-CD73; also called CD73.4-IgG2CS; CD73.4-IgG2.3
[4]
  % internalization, Calu6: 88%
  % internalization, H2030: 89%
  % internalization, H2228: 94%
  % internalization, HCC15: 94%
  T1/2 internalization, Calu6: 6.5 min
  T1/2 internalization, H2030: 3.7 min
  T1/2 internalization, H2228: 13.8 min
  T1/2 internalization, HCC15: 3.1 min
[5]
  T1/2 internalization, Calu6: 36 min
  T1/2 internalization, NCI-H292: 16.6 min
  Ymax internalization, Calu6: 75.6%
  Ymax internalization, NCI-H292: 78.4%
[6]
  T1/2 internalization, Calu6: 22.4 min and 21.8 min
  T1/2 internalization, NCI-H292: 17.2 min and 17.1 min
[7]
  UV % Peak1 <12.9 min: 37%
  UV % Peak3 15.1-16.7 min: 7.7%
  UV % Peak4 16.7-19.3 min (free mAb): 28.6%
  UV % Peak5 >19.3 min: 2.9%
[2]
  Kd: 0.55 nM

B5: GITR.6.G2 (antibody, human IgG2, kappa)
heavy: QVQLVESGGGVVQPGRSLRLSCAASGFTFSSYGMHWVRQAPGKGLEWVAVIWYEGSNKYYADSVKGRFTISRDNSKNTLYLQMNSLRAEDTAVYYCARGGSMVRGDYYYGMDVWGQGTTVTVSSASTKGPSVFPLAPCSRSTSESTAALGCLVKDYFPEPVTVSWNSGALTSGVHTFPAVLQSSGLYSLSSVVTVPSSNFGTQTYTCNVDHKPSNTKVDKTVERKCCVECPPCPAPPVAGPSVFLFPPKPKDTLMISRTPEVTCVVVDVSHEDPEVQFNWYVDGVEVHNAKTKPREEQFNSTFRVVSVLTVVHQDWLNGKEYKCKVSNKGLPAPIEKTISKTKGQPREPQVYTLPPSREEMTKNQVSLTCLVKGFYPSDIAVEWESNGQPENNYKTTPPMLDSDGSFFLYSKLTVDKSRWQQGNVFSCSVMHEALHNHYTQKSLSLSPGK
light: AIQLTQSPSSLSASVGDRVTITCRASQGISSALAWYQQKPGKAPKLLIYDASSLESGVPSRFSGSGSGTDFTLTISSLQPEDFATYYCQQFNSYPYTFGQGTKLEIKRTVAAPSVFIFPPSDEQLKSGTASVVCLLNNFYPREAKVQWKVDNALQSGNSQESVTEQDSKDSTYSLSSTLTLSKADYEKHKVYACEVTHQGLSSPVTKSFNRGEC
[8]
  NFKB signaling in TCR activated CD4+ T cells, EC50: 12.8 nM
  NFKB signaling in TCR activated CD4+ T cells, Emax: 69%
  NFKB signaling in TCR activated CD8+ T cells, EC50: 9 nM
  NFKB signaling in TCR activated CD8+ T cells, Emax: 85%
